Results published in patent publication US20190248863A1.

Assays:
Experiment in all cases: cell-based or functional assay
[1] = biological target: human RXFP3 (human) (UniProt Q9NSD7)
[2] = biological target: human RXFP4 (human) (UniProt Q8TDU9)
[3] = biological target: human RXFP2 (human) (UniProt Q8WXD0)
Chain of human RXFP2 (human) (Q8WXD0 whole entry): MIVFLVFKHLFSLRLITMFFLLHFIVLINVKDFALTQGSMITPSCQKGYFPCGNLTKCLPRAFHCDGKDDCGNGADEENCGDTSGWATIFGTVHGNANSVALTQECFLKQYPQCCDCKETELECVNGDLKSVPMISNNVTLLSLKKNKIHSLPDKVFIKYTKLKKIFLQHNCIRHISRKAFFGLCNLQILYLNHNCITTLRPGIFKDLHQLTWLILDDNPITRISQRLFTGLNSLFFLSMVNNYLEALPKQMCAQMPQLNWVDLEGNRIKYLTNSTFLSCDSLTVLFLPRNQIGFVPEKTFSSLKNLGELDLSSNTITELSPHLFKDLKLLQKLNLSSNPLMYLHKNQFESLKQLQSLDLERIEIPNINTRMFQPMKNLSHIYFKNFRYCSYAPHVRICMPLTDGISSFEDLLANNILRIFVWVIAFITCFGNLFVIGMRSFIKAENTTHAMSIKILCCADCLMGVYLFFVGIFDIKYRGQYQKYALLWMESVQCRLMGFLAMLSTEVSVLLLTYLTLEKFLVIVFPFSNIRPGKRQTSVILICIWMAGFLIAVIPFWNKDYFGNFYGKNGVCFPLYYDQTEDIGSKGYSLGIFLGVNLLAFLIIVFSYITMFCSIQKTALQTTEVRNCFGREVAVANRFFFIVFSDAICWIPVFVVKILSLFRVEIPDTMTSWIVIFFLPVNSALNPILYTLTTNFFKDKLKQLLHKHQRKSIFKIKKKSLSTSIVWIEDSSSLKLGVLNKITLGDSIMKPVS

Chain of human RXFP4 (human) (Q8TDU9 whole entry): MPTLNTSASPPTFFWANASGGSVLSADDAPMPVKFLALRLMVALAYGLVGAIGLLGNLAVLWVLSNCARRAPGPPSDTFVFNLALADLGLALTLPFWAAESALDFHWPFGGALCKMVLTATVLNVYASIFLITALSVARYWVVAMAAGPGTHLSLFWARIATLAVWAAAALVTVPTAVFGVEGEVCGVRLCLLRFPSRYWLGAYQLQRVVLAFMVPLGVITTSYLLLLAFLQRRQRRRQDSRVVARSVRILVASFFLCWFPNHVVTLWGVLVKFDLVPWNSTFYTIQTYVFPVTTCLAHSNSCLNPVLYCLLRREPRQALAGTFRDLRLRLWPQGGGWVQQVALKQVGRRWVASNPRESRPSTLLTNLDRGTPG
Chain of human RXFP3 (human) (Q9NSD7 whole entry): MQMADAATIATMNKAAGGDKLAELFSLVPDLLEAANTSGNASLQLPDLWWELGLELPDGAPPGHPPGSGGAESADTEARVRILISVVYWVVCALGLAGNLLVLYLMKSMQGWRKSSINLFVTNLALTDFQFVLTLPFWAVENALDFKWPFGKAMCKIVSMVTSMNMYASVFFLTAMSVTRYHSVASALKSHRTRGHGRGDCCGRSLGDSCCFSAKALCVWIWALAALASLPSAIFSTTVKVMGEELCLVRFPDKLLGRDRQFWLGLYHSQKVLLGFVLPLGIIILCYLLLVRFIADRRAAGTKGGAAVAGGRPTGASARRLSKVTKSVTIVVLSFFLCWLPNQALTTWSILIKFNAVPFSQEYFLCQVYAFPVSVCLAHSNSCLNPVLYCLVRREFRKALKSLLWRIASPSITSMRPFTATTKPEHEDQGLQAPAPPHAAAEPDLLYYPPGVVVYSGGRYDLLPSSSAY

| Substance | cAMP Assay EC50 (nM), inhibition of forskolin-induced cAMP, human RXFP3/CHO-K1 cells [1] [nM] | cAMP Assay EC50 (nM), inhibition of forskolin-induced cAMP, human RXFP4/CHO-K1 cells [2] [nM] | maximal inhibition of forskolin-induced cAMP (partial agonist activity), human RXFP4/CHO-K1 cells [2] [%] | cAMP Assay EC50 (nM), human RXFP2/CHO-K1 cells [3] [nM] |
| --- | --- | --- | --- | --- |
| recombinant human relaxin 3 (from UniProt Q8WXF3 119-142; Q8WXF3 26-52) (ligand) | 0.6 | 2.8 | 40 |  |
| insulin like 3 protein-INSL3 (from UniProt P51460 106-131; P51460 21-55) (ligand) |  |  |  | 0.46 |
